Reference: patent US5679525

Target: CBF1 (RBPJK), purified from HeLa (Homo sapiens) (UniProt Q06330)
Test: competition

Chain of CBF1 (RBPJK), purified from HeLa (Homo sapiens) (Q06330 other isoform, or with tags, fused parts or gaps): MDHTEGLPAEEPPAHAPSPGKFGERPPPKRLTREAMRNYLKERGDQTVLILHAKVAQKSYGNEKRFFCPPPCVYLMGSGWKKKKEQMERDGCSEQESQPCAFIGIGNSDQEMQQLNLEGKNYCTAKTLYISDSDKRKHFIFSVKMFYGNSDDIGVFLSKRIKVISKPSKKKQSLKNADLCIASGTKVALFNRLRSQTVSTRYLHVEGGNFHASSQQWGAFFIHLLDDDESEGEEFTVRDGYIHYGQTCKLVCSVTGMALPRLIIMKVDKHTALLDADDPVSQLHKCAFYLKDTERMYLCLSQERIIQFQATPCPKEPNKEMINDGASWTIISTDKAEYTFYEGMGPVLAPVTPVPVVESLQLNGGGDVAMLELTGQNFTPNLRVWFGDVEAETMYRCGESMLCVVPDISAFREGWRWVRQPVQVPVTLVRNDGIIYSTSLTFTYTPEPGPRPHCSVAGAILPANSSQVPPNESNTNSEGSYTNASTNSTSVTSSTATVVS

Question: For “AAGCATCGTGGATATTCCCGGCACAGCT (double strand) [ELAMp kB-1]”, which binding signal (% reduction at 10 pmol competitor) (0% at 0.1, 8% at 1.0 pmol) is on record?
Answer: Its binding signal (% reduction at 10 pmol competitor) is 44.

Question: With “CAAGAGACAGAGTTTCTAAGCTTATTGTAATTTTAAGCATCG (double strand) [Unrelated]” as the sequence, how does the binding signal (% reduction at 10 pmol competitor) (0% at all amounts) read?
Answer: Its binding signal (% reduction at 10 pmol competitor) is 0.

Question: For “GATGCCATTGGGGATTTCCTCTTTACTG (double strand) [ELAM kB-3]”, which binding signal (% reduction at 10 pmol competitor) (0% at 0.1 and 1.0 pmol) is on record?
Answer: The binding signal (% reduction at 10 pmol competitor) was 14.

Question: For “GGAAACACGCCGTGGCTAAAAATTTGGG (double strand) [Cp-Mut]”, which binding signal (% reduction at 10 pmol competitor) (0% at 0.1 and 1.0 pmol, approx 250-fold weaker than Cp) is on record?
Answer: The binding signal (% reduction at 10 pmol competitor) was 19.

Question: Which binding signal (% reduction at 10 pmol competitor) (EMSA competition against Cp probe, 51% at 0.1, 90% at 1.0 pmol) does the source give for “GGAAACACGCCGTGGGAAAAAATTTGGC (double strand) [Cp (EBV C-promoter EBNA2 responsive element)]” here?
Answer: The binding signal (% reduction at 10 pmol competitor) was 98.

Question: For “GGACTACCACTGTGCCTTCCTCTGGAGG (double strand) [Heptamer-BamHI]”, which binding signal (% reduction at 10 pmol competitor) (0% at 0.1 and 1.0 pmol, additional 40-fold reduction versus Heptamer+BamHI) is on record?
Answer: Its binding signal (% reduction at 10 pmol competitor) is 8.

Question: For “GGACTACCACTGTGGGATCCTCTGGAGG (double strand) [Heptamer+BamHI]”, which binding signal (% reduction at 10 pmol competitor) (0% at 0.1, 31% at 1.0 pmol, approx 16-fold weaker than Cp) is on record?
Answer: Its binding signal (% reduction at 10 pmol competitor) is 75.

Question: For “TATATGCCCGGGAAAGTTTTTGTATTCC (double strand) [ELAMp kB-2]”, which binding signal (% reduction at 10 pmol competitor) (2% at 0.1, 27% at 1.0 pmol) is on record?
Answer: Its binding signal (% reduction at 10 pmol competitor) is 51.

Question: How did the binding signal (% reduction at 10 pmol competitor) (22% at 0.1, 70% at 1.0 pmol, approx 2.5-fold weaker than Cp) turn out when “TCCTTCAGCCCTGTGGGAACTTGCTGCT (double strand) [CD23p]” was run?
Answer: The binding signal (% reduction at 10 pmol competitor) was 91.
